In patent US12427210B2, “Compounds comprising a fibroblast activation protein ligand and use thereof” (priority 2019, dated 2025):
One block for each binder: values may come before it.

Columns and labels:
Assay in all cases: radioligand displacement, compound at 10 µM
Settings in all cases: remark: other sources report otherwise
GR (h) (human), P04150 = biological target: T1, GR (h) (human), P04150
T1 chain: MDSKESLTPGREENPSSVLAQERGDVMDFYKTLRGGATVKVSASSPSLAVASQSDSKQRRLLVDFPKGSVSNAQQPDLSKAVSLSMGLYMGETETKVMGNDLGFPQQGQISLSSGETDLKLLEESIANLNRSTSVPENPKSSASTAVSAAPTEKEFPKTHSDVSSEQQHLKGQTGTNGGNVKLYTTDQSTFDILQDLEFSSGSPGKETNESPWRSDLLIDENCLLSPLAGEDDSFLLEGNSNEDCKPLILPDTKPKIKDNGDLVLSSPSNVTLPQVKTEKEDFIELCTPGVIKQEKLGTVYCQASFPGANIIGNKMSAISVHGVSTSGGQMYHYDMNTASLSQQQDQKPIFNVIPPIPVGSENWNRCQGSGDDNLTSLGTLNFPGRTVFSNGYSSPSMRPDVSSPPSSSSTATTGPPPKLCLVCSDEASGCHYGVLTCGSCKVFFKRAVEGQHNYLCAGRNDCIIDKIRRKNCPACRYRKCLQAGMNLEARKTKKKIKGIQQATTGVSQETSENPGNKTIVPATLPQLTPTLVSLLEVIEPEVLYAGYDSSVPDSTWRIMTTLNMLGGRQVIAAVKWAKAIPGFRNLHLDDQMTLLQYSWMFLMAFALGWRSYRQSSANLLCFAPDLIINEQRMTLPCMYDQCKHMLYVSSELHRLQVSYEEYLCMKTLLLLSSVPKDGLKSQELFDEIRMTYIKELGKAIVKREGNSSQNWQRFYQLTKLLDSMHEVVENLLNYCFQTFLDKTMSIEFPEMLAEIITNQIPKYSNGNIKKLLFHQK

D1 (h) (human), P21728 = biological target: T2, D1 (h) (human), P21728
T2 chain: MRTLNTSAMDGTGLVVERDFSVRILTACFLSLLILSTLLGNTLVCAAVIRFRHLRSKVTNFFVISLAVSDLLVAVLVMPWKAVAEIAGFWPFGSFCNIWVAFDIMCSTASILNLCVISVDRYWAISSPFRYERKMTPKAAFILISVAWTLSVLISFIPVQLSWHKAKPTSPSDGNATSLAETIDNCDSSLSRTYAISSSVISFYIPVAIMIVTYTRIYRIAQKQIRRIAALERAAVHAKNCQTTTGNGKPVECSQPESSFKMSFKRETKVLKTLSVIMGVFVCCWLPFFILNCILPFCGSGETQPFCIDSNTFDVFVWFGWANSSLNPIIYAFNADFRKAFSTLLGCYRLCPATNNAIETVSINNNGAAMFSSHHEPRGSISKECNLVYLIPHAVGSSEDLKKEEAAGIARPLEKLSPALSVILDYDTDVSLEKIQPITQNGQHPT

[1] = biological target: 5-HT2B (h) (human), P41595
5-HT2B (h) (human), P41595, sequence (P41595 whole entry): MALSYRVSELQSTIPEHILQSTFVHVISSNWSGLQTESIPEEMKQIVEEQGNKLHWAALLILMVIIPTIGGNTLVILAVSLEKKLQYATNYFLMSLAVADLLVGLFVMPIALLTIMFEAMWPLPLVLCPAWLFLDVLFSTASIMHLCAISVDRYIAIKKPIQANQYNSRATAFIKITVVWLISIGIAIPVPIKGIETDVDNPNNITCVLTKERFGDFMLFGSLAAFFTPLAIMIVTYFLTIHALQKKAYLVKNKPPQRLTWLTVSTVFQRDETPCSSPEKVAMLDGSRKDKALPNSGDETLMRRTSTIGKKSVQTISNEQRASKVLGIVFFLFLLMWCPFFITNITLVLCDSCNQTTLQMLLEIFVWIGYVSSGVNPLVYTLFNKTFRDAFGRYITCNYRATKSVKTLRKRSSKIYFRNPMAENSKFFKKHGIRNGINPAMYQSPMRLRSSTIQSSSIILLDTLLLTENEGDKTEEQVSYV

[2] = biological target: kappa (h) (KOP) (human), P41145
kappa (h) (KOP) (human), P41145, sequence (P41145 whole entry): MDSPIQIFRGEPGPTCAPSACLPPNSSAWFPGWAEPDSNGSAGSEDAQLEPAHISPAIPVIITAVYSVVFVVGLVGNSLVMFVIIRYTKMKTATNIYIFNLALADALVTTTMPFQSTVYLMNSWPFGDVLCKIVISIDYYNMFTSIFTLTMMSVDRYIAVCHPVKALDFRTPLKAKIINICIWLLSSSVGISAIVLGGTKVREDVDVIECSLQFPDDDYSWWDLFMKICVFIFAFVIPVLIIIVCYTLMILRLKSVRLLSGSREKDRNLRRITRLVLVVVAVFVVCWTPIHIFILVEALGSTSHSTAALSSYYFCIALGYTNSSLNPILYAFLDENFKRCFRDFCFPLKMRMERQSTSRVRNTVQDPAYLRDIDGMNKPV

[3] = biological target: T3, alpha 1A (h) (human), P35348
T3 chain: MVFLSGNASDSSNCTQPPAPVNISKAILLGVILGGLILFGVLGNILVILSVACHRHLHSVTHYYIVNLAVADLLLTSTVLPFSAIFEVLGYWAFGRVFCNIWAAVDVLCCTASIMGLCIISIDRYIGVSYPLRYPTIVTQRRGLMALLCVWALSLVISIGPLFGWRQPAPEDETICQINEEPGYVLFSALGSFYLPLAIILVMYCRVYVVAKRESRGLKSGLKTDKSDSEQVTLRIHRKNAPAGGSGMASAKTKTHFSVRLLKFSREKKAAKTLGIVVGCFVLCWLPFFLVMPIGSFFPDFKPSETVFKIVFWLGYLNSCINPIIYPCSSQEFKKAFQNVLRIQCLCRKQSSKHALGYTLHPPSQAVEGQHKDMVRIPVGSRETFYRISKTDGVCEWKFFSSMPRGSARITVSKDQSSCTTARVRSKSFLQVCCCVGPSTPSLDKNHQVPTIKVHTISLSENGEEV

[4] = biological target: T4, CCK1 (CCKA) (h) (human), P32238
T4 chain: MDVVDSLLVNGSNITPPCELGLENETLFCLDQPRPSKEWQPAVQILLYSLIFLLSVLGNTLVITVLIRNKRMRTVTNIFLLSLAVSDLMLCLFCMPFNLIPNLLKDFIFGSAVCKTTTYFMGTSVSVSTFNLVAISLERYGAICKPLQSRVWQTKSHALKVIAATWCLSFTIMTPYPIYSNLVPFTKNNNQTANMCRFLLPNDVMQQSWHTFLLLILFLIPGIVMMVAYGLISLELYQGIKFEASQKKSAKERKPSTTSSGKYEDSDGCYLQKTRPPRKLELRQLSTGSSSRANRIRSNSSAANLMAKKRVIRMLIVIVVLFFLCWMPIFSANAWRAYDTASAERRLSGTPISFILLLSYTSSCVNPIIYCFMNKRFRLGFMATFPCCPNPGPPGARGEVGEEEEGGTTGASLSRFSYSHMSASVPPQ

A2A (h) (human), P29274 = biological target: T5, A2A (h) (human), P29274
T5 chain: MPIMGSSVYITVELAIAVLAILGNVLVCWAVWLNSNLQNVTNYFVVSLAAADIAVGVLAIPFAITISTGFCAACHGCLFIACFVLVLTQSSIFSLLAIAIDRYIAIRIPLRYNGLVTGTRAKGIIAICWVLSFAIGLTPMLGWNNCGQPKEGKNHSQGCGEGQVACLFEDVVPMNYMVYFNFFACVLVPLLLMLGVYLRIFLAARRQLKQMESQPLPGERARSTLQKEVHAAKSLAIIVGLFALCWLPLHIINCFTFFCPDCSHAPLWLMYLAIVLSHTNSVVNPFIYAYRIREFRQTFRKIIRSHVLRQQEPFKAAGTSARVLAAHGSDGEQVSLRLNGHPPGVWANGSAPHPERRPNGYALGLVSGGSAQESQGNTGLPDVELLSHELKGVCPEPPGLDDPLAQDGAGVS

% Inhibition of Specific Binding (GR (h) (human), P04150): 0%
% Inhibition of Specific Binding (D1 (h) (human), P21728): 7%
% Inhibition of Specific Binding [1]: 3%
% Inhibition of Specific Binding [2]: 10%
% Inhibition of Specific Binding [3]: -12%
% Inhibition of Specific Binding [4]: 16%
% Inhibition of Specific Binding (A2A (h) (human), P29274): -16%
B1: Hex-[Cys(tMeBn(DOTA-AET))-Pro-Pro-Thr-Gln-Phe-Cys]-OH (3BP-3554) (peptide)
peptide: CPPTQFC
modifications: here or on the partner: N-terminal hexanoyl (Hex); Cys1 and Cys7 cyclised through tMeBn carrying DOTA-AET; free C-terminal acid (-OH)

% Inhibition of Specific Binding (GR (h) (human), P04150): -2%
% Inhibition of Specific Binding (D1 (h) (human), P21728): 0%
% Inhibition of Specific Binding [1]: 2%
% Inhibition of Specific Binding [2]: 7%
% Inhibition of Specific Binding [3]: 2%
% Inhibition of Specific Binding [4]: 24%
% Inhibition of Specific Binding (A2A (h) (human), P29274): -4%
B2: Hex-[Cys(tMeBn(DOTA-PP))-Pro-Pro-Thr-Gln-Phe-Cys]-Asp-NH2 (3BP-3407) (peptide)
peptide: CPPTQFCD
modifications: here or on the partner: N-terminal hexanoyl (Hex); Cys1 and Cys7 cyclised through tMeBn carrying DOTA-PP; C-terminal amide
